B4: murine GPR182 (mGPR182), expressed from mGPR182 T2A GFP in 300.19 pre-B cells (receptor, mouse, UniProt P43142 1-398, looked up)
chain: MSVIPSPRPVSTLEPDNDFRDIHNWTELLHLFNQTFTDCHIEFNENTKHVVLFVFYLAIFVVGLVENVLVICVNCRRSGRVGMLNLYILNMAIADLGIILSLPVWMLEVMLEYTWLWGSFSCRFIHYFYLVNMYSSIFFLTCLSIDRYVTLTNTSPSWQRHQHRIRRAVCAGVWVLSAIIPLPEVVHIQLLDGSEPMCLFLAPFETYSAWALAVALSATILGFLLPFLLIAVFNILTACRLRRQRQTESRRHCLLMWAYIVVFAICWLPYQVTMLLLTLHGTHIFLHCHLVNLLYFFYEIIDCFSMLHCVANPILYNFLSPSFRGRLLSLVVRYLPKEQARAAGGRASSSSSTQHSIIITKEGSLPAAADLHTHPIRNVQASSPPPNTSPTLCNSVAS
notes: GPR182, mouse; Expressed fused via a self-cleaving T2A peptide to GFP (backbone pME-Cas9-T2A-GFP, Addgene 63155); receptor and GFP are split post-translationally; also called ACKR5 (proposed); source: 300.19 mouse pre-B cells, stably transfected, on cells

Tests used:
Details in all cases: one partner purified
[1] = molecular target: B4; assay: flow cytometry on cells; direct binding: 300.19 cells expressing GPR182 T2A GFP with increasing concentrations of fluorescently labelled chemokine, 45 min; temperature not stated for this experiment
[2] = molecular target: B4; assay: flow cytometry on cells; competition binding at 4°C: 300.19 cells expressing mGPR182 or hGPR182 with 3 nM fluorescent chemokine and increasing concentrations of its unlabeled counterpart, 45 min
[3] = molecular target: T1, human GPR182 (hGPR182), expressed from hGPR182 T2A GFP in 300.19 pre-B cells (human, UniProt O15218 1-404); assay: as above
T1 construct: GPR182, human; Expressed fused via a self-cleaving T2A peptide to GFP (backbone pME-Cas9-T2A-GFP, Addgene 63155); split post-translationally; also called ACKR5 (proposed); source: 300.19 mouse pre-B cells, stably transfected, on cells

[4] = molecular target: B4; assay: flow cytometry on cells; competition scavenging at 37°C: 300.19 cells expressing mGPR182 or hGPR182 with 3 nM fluorescent chemokine and increasing concentrations of its unlabeled counterpart, 45 min
[5] = molecular target: T1, human GPR182 (hGPR182), expressed from …; assay: as above
[6] = molecular target: T2, hCXCL12, unlabeled (human, UniProt P48061 22-93); assay: flow cytometry on cells; competition binding at 4°C: 300.19 cells expressing mGPR182 or hGPR182 with 3 nM fluorescent chemokine and increasing concentrations of its unlabeled counterpart, 45 min
T2 construct: CXCL12, human; also called X12

B1: mCCL28, fluorescently labelled (ligand, mouse, UniProt Q9JIL2 17-130, looked up)
chain: FQTSEAILPMASSCCTEVSHHVSGRLLERVSSCSIQRADGDCDLAAVILHVKRRRICISPHNRTLKQWMRASEVKKNGRENVCSGKKQPSRKDRKGHTTRKHRTRGTHRHEASR
modifications: fluorescent label (AF647 or Dy649), site not stated
notes: CCL28, mouse; also called CCL28-AF647; mCCL28-AF647
B1 was tested. Which Kd [1] did it give?
The Kd was ~8.5 nM.

B2: mCCL28, unlabeled (ligand, mouse, UniProt Q9JIL2 17-130, looked up)
chain: FQTSEAILPMASSCCTEVSHHVSGRLLERVSSCSIQRADGDCDLAAVILHVKRRRICISPHNRTLKQWMRASEVKKNGRENVCSGKKQPSRKDRKGHTTRKHRTRGTHRHEASR
notes: CCL28, mouse
How did the Kd [2] turn out when B2 was run?
Its Kd is 10 nM.

What about the Kd [3] of the same binder?
The Kd was 28 nM.

What about the “Kd (competition scavenging)” value [4] of the same binder?
Its value is 14 nM.

And the “Kd (competition scavenging)” value [5]?
Its value is 52 nM.

B3: hCXCL13, unlabeled (ligand, human, UniProt O43927 23-109, looked up)
chain: VLEVYYTSLRCRCVQESSVFIPRRFIDRIQILPRGNGCPRKEIIVWKKNKSIVCVDPQAEWIQRMMEVLRKRSSSTLPVPVFKRKIP
notes: CXCL13, human
B3 was tested. Which Kd [2] did it give?
The Kd was 20 nM.

What about the Kd [3] of the same binder?
The Kd was 20 nM.

What about the “Kd (competition scavenging)” value [4] of the same binder?
Its value is 13 nM.

And the “Kd (competition scavenging)” value [5]?
Its value is 9 nM.

B4 was tested. Which Kd [6] did it give?
Its Kd is 120 nM.

B5: mCCL20, unlabeled (ligand, mouse, UniProt O89093 28-97, looked up)
chain: ASNYDCCLSYIQTPLPSRAIVGFTRQMADEACDINAIIFHTKKRKSVCADPKQNWVKRAVNLLSLRVKKM
notes: CCL20, mouse
With B5 as the binder, how does the Kd [2] read?
Its Kd is 120 nM.

B6: mCCL19, unlabeled (ligand, mouse, UniProt O70460 26-108, looked up)
chain: GANDAEDCCLSVTQRPIPGNIVKAFRYLLNEDGCRVPAVVFTTLRGYQLCAPPDQPWVDRIIRRLKKSSAKNKGNSTRRSPVS
notes: CCL19, mouse
With B6 as the binder, how does the Kd [2] read?
Its Kd is 180 nM.

What about the “Kd (competition scavenging)” value [4] of the same binder?
The value was 250 nM.

B7: hCCL19, unlabeled (ligand, human, UniProt Q99731 22-98, looked up)
chain: GTNDAEDCCLSVTQKPIPGYIVRNFHYLLIKDGCRVPAVVFTTLRGRQLCAPPDQPWVERIIQRLQRTSAKMKRRSS
notes: CCL19, human
Which results are given for B7?
Kd [3]: 55 nM; Kd (competition scavenging) [5]: 75 nM

Source: article PMC10405735 (Frontiers in Immunology, 2023)
